The values that follow come from patent publication US20200353003A1.

Where only a bound is given, the exact number is not on record here.

For the experiment, the target named is BDCA2 antigen (CLEC4C, CD303) expressed on transduced RS4-11 and A95-KK reporter cells (UniProt Q8WTT0). Briefly: cell-based or functional assay.
Chain of UniProt Q8WTT0 (Q8WTT0 whole entry): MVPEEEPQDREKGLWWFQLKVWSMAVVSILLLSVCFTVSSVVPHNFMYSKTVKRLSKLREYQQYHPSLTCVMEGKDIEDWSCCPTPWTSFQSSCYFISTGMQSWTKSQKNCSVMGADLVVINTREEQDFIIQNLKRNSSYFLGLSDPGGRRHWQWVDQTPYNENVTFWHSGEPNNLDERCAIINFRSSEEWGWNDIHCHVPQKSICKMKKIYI

B1: BDCA2 CAR (chimeric antigen receptor specific for BDCA2, with aBDCA2-scFV as binder) (protein, part only; not given: hinge, transmembrane and signaling domains, not shown: another chain or arm of the molecule; a dimerising Fc or GST)
scFv: DIQMTQSPSSVSASVGDRVTITCRASQEISGYLSWYQQKPGKAIKRLIYAASTLDSGVPSRFSGSRSGTDFTLTISSLQSEDFATYYCLQYASYPPTFGGGTKLEIKGGGGSGGGGSGGGGSQVTLKESGPTLVKPTQTLTLTCTFSGFSLSTSGMGVGWIRQPPGKALEWLAHIWWEDDKYYNPSLKSRLTITKDTSKNQVVLTMTNMDPVDTATYYCTRNWDYYTMDYWGQGTTVTVSS
For B1, the killing of target cells expressing BDCA2 (reporter-BDCA2 and RS4-11-BDCA2) by NK and T cells expressing BDCA2-CAR, flow cytometry based cytotoxic assay, E:T=1:1 is over 70%.
